The data set can be described thus: label from the status in PepcDB records.

Regarding “MVAEITAPKSMGKVLGYNFSKVTAGNASVILTSSMSVDANGETNFERALTDMDMRIPSGIRTKKTVFHCSLNPHPDDRLTTEQLQDIAREYMEKMGYGKQPYIVFKHNDIAREHIHIVSLRVDSYGKKLPYKFEARRSKRITDELERKYGLIPSGNRRSRHETHAENVLKTADVKQGDVRRQIAAVVRAVLKRYAFRSLGEMNLLLARYHIVAEEVRKEYKGKRYDGLVYAITDDAGEKRMIPLHAGKIGRGTGYAAVVRHFEKSKALIKEKAPMLRNAIIEVMQSSPDKERFSEEMKKRGIDVHIRQNEQGRIYGITFISDEAGIAANGSRLGKGYSAHVFNDYFLGG”, the protein production entry is listed as “not failed”. As to “MVAEKERVLMDLQDVFEYAFDEIFVTDDKGIVVRVNSTCERHYQIAAKELVGKHVKELQKDGIFYPSATLEVIEKKRPIELVQTTKSGEYLHVRTRPVFDDEGNLRRVISYSRDLTELYQLRQKVEEMDNQLKTYKKELRETYEHEGLIFKSIAMQKIIETIKKVSVVDSTVLVLGETGVGKSRLVRHLHEMSNRKNESFYEINCAALPTNLIESELFGYSGGSFTGANREGKKGLLESAHKGTLFLDEIGEMPLEIQAKLLQVLQEKTFRPIGGRELKKVDVRIVAATNRDLSMMVKQGTFRKDLYYRLNVIPILIPPLRERTEDILPLIYHYLQHFNEKYGRNVKLAPSTLQMFVGYPWEGNNREIENVIERIVITADDIVTIEDLPIAMQESTVEQSGQSLYKMLEEVERNIILKAYKTYGSSYKVAEFLKISQSAATRKIKKLIEEEENIG”, the protein production entry was “failed”. Then “MVALPDWMALAPALSLALASLVLLLADSIDPDSTNTGLLAGISVLGSLLSFGFAGWFITAGTGMADNTGVALFNSQLVVDQMALFFMAIVGSVTTLVVLASYDYITEHSYQAEFFALVLLSATGMSLLSAANSLATAFVALELVSLPSYALVAFLKENKGSVEAGLKYFLIGAVSSAVLAYGISLVYAATGVLRFDGVATAISSGTIQTISEGSIQAQSGDPAVPMAILGVGILMIIGGVAFKTASVPFHFWAPEAYEGAPAPISAFLSSASKAAGFVLAFRAFAVAFPIGDLLAAGGAINWVMAFQILAIATMFIGNFAAATQETVKRMLAYSSVGHAGYVLIGLAAVSGSGEGLSLSLSAGMSHLLVYGFMNTGAFLFIALAEYWGVGRRFEDYNGLGKEAPVACAAMTVFLFSLAGLPIGGGFFSKFYLFSATLNVGAWSLAAALIINSALSLFYYSRVVKAMWIEEPTGSRTIESYPMGLYTAVVGAAIVTVLLVPGFNRVSEIAFQAAQLL”, with “failed”. Turning to “MVCCPVNENAAALVVSDGRVMIWELKSAVCNRNSRNSSSGVSPLYSPVSFCGIPVGVLQNKLPDLSLDNMIGQSAIAGEEHPRGSILREVHLKFLLTGLLSGLPAPQFAIRMCPPLTTKNIKMYQPLLAVGTSNGSVLVYHLTSGLLHKELSIHSCEVKGIEWTSLTSFLSFATSTPNNMGLVRNELQLVDLPTGRSIAFRGERGNDESAIEMIKVSHLKQYLAVVFRDKPLELWDVRTCTLLREMSKNFPTITALEWSPSHNLKSLRKKQLATREAMARQTVVSDTELSIVESSVISLLQEAESKSELSQNISARGHFVFTDIDGQVYHLTVEGNSVKDSARIPPDGSMGSITCIAWKGDTLVLGDMDGNLNFWDLKGRVSRGIPTHRSWVRKIRFAPGKGNQKLIAMYNDGAEVWDTKEVQMVSSLRSGRNVTFRILDVDWCTSDKVILASDDGCIRVLEMSMKSACFRMDEQELTEPVWCPYLLVPRASLALKAFLLHQPWNGQYSLDISHVDYPENEEIKNLLQEQLNSLSNDIKKLLLDPEFTLLQRCLLVSRLYGDESELHFWTVAAHYLHSLSQEKSASTTAPKEAAPRDKLSNPLDICYNVLCENAYFQKFQLERVNLQEVKRSTYDHTRKCTDQLLLLGQTDRAVQLLLETSADNQHYYCDSLKACLVTTVTSSGPSQSTIKLVATNMIANGKLAEGVQLLCLIDKAADACRYLQTYGEWNRAAWLAKVRLNPEECADVLRRWVDHLCSPQVNQKSKALLVLLSLGCFFSVAETLHSMRYFDRAALFVEACLKYGAFEVTEDTEKLITAIYADYARSLKNLGFKQGAVLFASKAGAAGKDLLNELESPKEEPIEE”, the protein production result was “failed”. Consider “MVCDKCEKKLSKVIVPDKWKDGARNVTEGGGRKINENKLLSKKNRWSPYSTCTTKCMICKQQVHQDGKYCHTCAYSKGVCAMCGKQVLDTKMYKQSNV”, for which the protein production result is recorded as “failed”. Then “MVDDNTDQSLSFGRLLFGAGLALQASEDFREMDETVEYAESAGVPVPDVLAPLASGMMLVGGIGVALWRFPRIATGAVVTFLAVVTPTMHDFWNAEPGDRSGERLAFFGNLAMLGAALAYLRKAYR”, with “failed”; and “MVDFKVVLSDPKTGLSYKIDAAGAAAGALLGKKIGTEVDGAPFGMSGYKITITGGSDKTGTPARPDLPGNGRRGLLISDGFGFNATHNGERRRKSQRGNEIAADFVQVNAKITVYGEKPVTEIFAAAAE”, with “failed”; and “MVDHGMFYSSRMSTLSSNGRGDAYTCKKALHLTLNKPNVVKACSDLKKNEHQISRDFAAETKKKTEFLVLKKNNDERSKTGEVTREKKQSALPLKLSKTPRSGTGEIKQTLKKRGLSKSVPETSRLIKLKKQPPVKVSDKPKSCPVLTKNDTDTLELFEIAKKSADFANAKGILASEVETSMCVDTLTLLLEFPISARDMETRKLMVRLEHLTKHKNRKICNSASKLLQCWRESIREQQLRESRKTQG”, with “failed”. For the sequence “MVDTTILAQALGFISFGLGFSVFYQKNDRHLKILMLIFNLNHLLHFLLLGSMVSALSALLSALRTTTAIFVSSKRVAAVFIVISLVSGFWVAEQWRDLWPIIGTVIGTYSVFCLSGIRMRIGFLLGASCWLTNNILVGSIGGTLLEMTVIVMNLLTIYRLHRQQSESMINQSSY”, the protein production result was “failed”. Consider “MVEEKVVEKGKERAVEVTKWRRVFDDYRAMSDEILRPDEPKKEKFLEAMRKYLTKQNWPFLLPYKLTLEACTKCGTCAEACTMYLGSGRKKIYSPVYRSDMLRKIYKKHFTLTGKLFGPLIGAKDPTEDDINALAESAYRCTVCRRCALACPFGLDNGLITRETRKIFADLGIVPDELKDNGVENQLKYGNAPKIPYEAFMDILEFIKEDIEDEKGVEVEIPVDKKGAKYLIMNNAGDYLAFTETVQGIVEIMNYVGEDWTLNSPKTGVNDIVNYGLFYSDEDLVRVMKAHVETAKKLDVEYLVVGECGHAYDSIAHFAKDLIPPEERPFKVISWMELLDQFIREGKLKLDKEKNPEPVTFHDSCKWGRTGGIYEEPRRILQAACKDFREMYPNREWNYCCGGGGGFAIMAKDDFLKFRMETYGKMKVQQLKQTGAKIIATICSNCKAQFREMINYYNLDMRFSGVSELVANALVYE”, for which the protein production result is “failed”. Then “MVEHIFKRDGHAEKFQPYKIEDAIKKAFESVNVRYDDRIYTNVILAIESENLNSVECIQDRIELEFFKAGYFAVMKSFMNYRFLHKMQREHIYGLSEDTTYVNSTQSVEEYINKEDWRINANANTGYSNAGLVNNLAGKLIANYWLDKVYSKEEGYAHRNGDVHIHDLDCLTGYCAGWSLRSLLNEGFNGVRGRVESRAPKHLREALGQMANFLGILQSEWAGAQAFSSFDTYLAPYVFRDQLEFKEIKKAIKSFVYNLNVPARWGQSPFTNVTIDWTVPADLKDQIPTRNDRHLFEDIQEDALLVQEAQKRGASSLLSMTYKYFQAEMNLINRAFYEVMTEGDKTGQPFTFPIPTVNITEDFDWHGENTDLLFENTAKIGSSYFQNFIGSQYIRNEKGELVENPEAYKPNAVRSMCCRLQLDLRELLKRGGGLFGSAEMTGSIGVVTLNMARLGYRFRGDREGLMAELTKLMDLSKSTLEKKRQAVTELFHRGLYPYTKRYLPGFNNHFSTIGVNGINEMIRNFTNDQDNISSPSGMAFATEILEFMRERIRSYQEETGNLYNLEATPAEGTTYRFAKEDKKRYPQIIQAGMEENVYYTNSSQLPANFTDDPFEALTLQDELQCKYTGGTVLHLYMREKISSAEACRKLVKTVITSYKLPYITITPVFSVCPKHGYLRGEHEYCPLCDEEALLEIEQSQCC”, with “failed”.

“MVEIFLRTLPFFVIIGLGFWAGRTRFFTPEATAYLTKFVFFFALSAMLFRFAATLPFAEIFNGQLVMGYLWGTAGVYGIASLVAFLRKLDVPTAAVEAQCAAIGNVGFLGLPMLAMLFGEAAIGPVMLVLSVDLIVFSSLIVILINGGRDGRLSLGTLRLIGMGLLKNPMIVSISAGLIWSSLRLPIPAPLNDFLTILGGAATPGALFAIGASLAGRSAERVQIAAWLSLCKLVIHPILVALAVLWVFPVDAFSASVAIAAAALPVAGNVYMLAAHYGVAPQRASAAILLSTAVSILTVPAFIAWVTSA”: the protein production result is on record as “failed”. Then “MVEQLVSNAAILLAGFYIISLVYKEPITKELSTNKKIVIGIWAGLLGFALMVFGIPISNNVIVDLRHIPIIMVGFYGGPIPAIVSAIIISASRFLLSVNSAAIMAAVVMMLIGIITAIFGKRIEKFKIWGVFILNIIACSFVVINLHLILARESHFWINMTVFVLIALVIGAVSAGLMSNMIKSKQLFQKYEQDSTLDYLTKLSNVRQFDEKINHVMDAGSRQVTLMLIDIDYFKNINDTYGHDAGDAILKQLAIILKRNTSDGSEAFRNGGEEFSIVLLDCPIEKGNFFAEQVRRETEEYDFMIPSGQVVKITISVGVSSSKDGANTSEGLFKSADEALYKAKLTGRNQVCIADGN”, with “failed”; and “MVERLLEIIERSLRKCPWLEKQSIETLLEALASEIEEVAEAVKKNDLANLEEEIGDLIYDALLVAAVAQRDYGIDLESAIQKVVEKISHRKPWLFWEEKISLEEAEKIWKERKKKI”, with “not failed”.

For “MVEVYRLTKRHLDGAKSESALLNQIKIFSTCVGHGVGTIDFSEKVLEIPPAEFEAILQNGGEYLRFKLGNLSRYFEVEVFPEHAAKLLPEMMECPFKKVLEELREGYLVLRKDFKHA”, the protein production result was “failed”. “MVEYDLSVIILNYNAKRFLEECINSIYENTKEIKFEVILVDNKSTDNSAEFIKEKFTGKEDFTFIESKVNCGFAAGNNKAIEVSKGRAVLLLNPDTVVNGNVIGETYKCLMKDDKVGVAGCKVLNPDGTLQLACRRMIPTPKDAFYKIFGLSKIFKNNKKFTRYNLTYASADEFIDVDSVSGSYLMIKKEVIDKIGYLDETFFMYGEEMDWCLRARKAGYIVRYCPVGTIIHYKGESSKQLSHKATYEFYRAMWIFYKKNNKGNIFLDSIVWLGVKFLLFIALIKLAILPKNRVGSKG”: the protein production result is listed as “failed”. For “MVFCRGCAKEISDDAGTCPHCGAPQLIISSASANKEAPASGNWYFEVLKKYAVFTGRARRKEYWMFFLFNVLISIVIGVIGGLVGDGGILANLYSLAVLVPGIAVGVRRLHDTDRSGWWLLVPIANLVFLVQEGHAGPNRFGPSPK”, the protein production entry was “failed”.

For the sequence “MVFKRRDRRSPLQVLWELIWPRGGWTRAFHYVKHRVRRLPDRPERIARGIGAGVFASFTPFYGIHFVIAAILARLINGNILAGLSGTFFGNPLTYVPIGVVSLQTGHFLLGTEFHEGAKQGLMRKFARAAGDLKDNFLALFTDRDADWQALGLFFDEVFFPYMIGGIAPGIVAGVVCYYLSLPVISTYQKRRRAKIKAKFEAIKKKAQADLPNPGNPG”, the protein production entry is recorded as “failed”.
